Laboratory results from patent publication US20240352156A1 (BIOGRAPH 55, published 2024).

T1: CD19 (antigen in solution, Octet assays) (human, UniProt P15391 20-291, limits assumed)
T1 construct: also called Cluster of Differentiation 19; B4
T1 sequence (looked up): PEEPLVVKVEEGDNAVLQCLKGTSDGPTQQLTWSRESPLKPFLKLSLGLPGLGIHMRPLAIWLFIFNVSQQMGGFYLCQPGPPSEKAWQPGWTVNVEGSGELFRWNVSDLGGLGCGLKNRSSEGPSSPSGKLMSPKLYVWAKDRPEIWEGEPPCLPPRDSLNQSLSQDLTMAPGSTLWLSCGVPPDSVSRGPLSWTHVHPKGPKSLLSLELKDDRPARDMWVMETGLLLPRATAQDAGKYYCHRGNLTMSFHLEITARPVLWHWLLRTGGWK


Tests used:
[1] = biological target: T2, CD38 (antigen in solution, Octet assays) (human, UniProt P28907 43-300, limits assumed); test: BLI (OctetRed96), antibody on anti-hIgG Fc capture sensor
T2 construct: also called Cluster of Differentiation 38; ADPRC1
Experimental: (§1) The binding affinities of parental and bispecific antibodies were determined using bio-layer interferometry. Binding experiments were performed on OctetRed96 at 25° C. using an assay Buffer consisting of 0.1% BSA, 1×PBS, 0.02% Tween-20, 0.05% NaN3. The antibodies were loaded onto Anti-hIgGFc Capture biosensors for 300 seconds. The ligand-loaded sensors were dipped into a series dilution (starting at 300 nM: two-fold series dilution for CD19 and three-fold series dilution for CD38) of the antigens for association (200 seconds for CD19 and 150 seconds for CD38) followed by dissociation (600 seconds for CD19 and 400 seconds for CD38). Kinetic constants were calculated using a monovalent (1:1) binding model.

[2] = biological target: T3, CD38 on cells (CD38-transfected HEK293, Daudi, REH) (human, UniProt P28907 1-300); test: flow cytometry on CD38-transfected HEK293 cells, MFI against test article concentration
T3 construct: whole, on cells; also called HEK293-CD38

[3] = biological target: T1, CD19 (antigen in solution, Octet assays); test: BLI (OctetRed96), antibody on anti-hIgG Fc capture sensor
Experimental: as §1

binding result [2]	Binder	binding result [1]	binding result [3]
no binding (tested: 133 nM)	851A = anti-CD19 3C10 (antibody, V domains shown, captured by anti-human IgG Fc) VH: not shown VL: DIQMTQSPSSLSASVGDRVTITCRASQGISSWLAWYQQKPEKAPKSLIYAASSLQSGVPSRFSGSGSGTDFTLTISSLQPEDFATYYCQQYKRYPYTFGQGTKLEIKR	no binding (tested: antigen dilutions starting at 300 nM)	
	851C = anti-CD38 003 heavy chain & anti-CD19 3C10 light chain (antibody, V domains shown) VH: not shown VL: DIQMTQSPSSLSASVGDRVTITCRASQGISSWLAWYQQKPEKAPKSLIYAASSLQSGVPSRFSGSGSGTDFTLTISSLQPEDFATYYCQQYKRYPYTFGQGTKLEIKR		no binding (tested: antigen dilutions starting at 300 nM)
